Data taken from publication PMC3293039, “Highly stable meso-diaminopimelate dehydrogenase from an Ureibacillus thermosphaericus strain A1 isolated from a Japanese compost: purification, characterization and sequencing” (AMB Express, 2011).

Experiments:
purified protein [1] = substrate: N[C@H](CCC[C@H](N)C(=O)O)C(=O)O; test: purified protein; assay type: biochemical, Ureibacillus thermosphaericus; settings: oxidative deamination, NADP as co-substrate, carbonate-KOH pH 10.5, 50 °C
purified protein [2] = substrate: NC(=O)c1ccc[n+]([C@@H]2O[C@H](COP(=O)(O)OP(=O)(O)OC[C@H]3O[C@@H](n4cnc5c(N)ncnc54)[C@H](OP(=O)(O)O)[C@@H]3O)[C@@H](O)[C@H]2O)c1; test: purified protein; assay type: biochemical, Ureibacillus thermosphaericus; settings: oxidative deamination, meso-DAP as co-substrate, carbonate-KOH pH 10.5, 50 °C, varied: cofactor

B1: meso-DAPDH (meso-diaminopimelate dehydrogenase) (Ureibacillus thermosphaericus) (protein)
chain: SKIRIGIVGYGNLGRGVEAAIQQNPDMELVAVFTRRDPKTVAVKSNVKVLHVDDAQSYKDEIDVMILCGGSATDLPEQGPYFAQYFNTIDSFDTHARIPDYFDAVNAAAEQSGKVAIISVGWDPGLFSLNRLLGEVVLPVGNTYTFWGKGVSQGHSDAIRRIQGVKNAVQYTIPIDEAVNRVRSGENPELSTREKHARECFVVLEEGADPAKVEHEIKTMPNYFDEYDTTVHFISEEELKQNHSGMPHGGFVIRSGKSDEGHKQIIEFSLNLESNPMFTSSALVAYARAAYRLSQNGDKGAKTVFDIPFGLLSPKSPEDLRKELL
notes: native, purified from U. thermosphaericus A1 cells; gene encodes 326 residues; homodimer about 80 kDa, subunit about 40 kDa; N-terminus SKIRIGIVGY (initiator Met removed)
Purified protein [1]
  Km: 1600 µM
Purified protein [2]
  Km: 130 µM
